What was measured:
[1] = biological target: human µ opioid receptor (human), P35372; assay: radioligand competition with [3H]naloxone (5 nM), membranes of CHO-K1 cells with recombinant human µ opioid receptor; Ki by Cheng-Prusoff; sample diluted on the day of the assay (unreleased)
[2] = biological target: human µ opioid receptor (human), P35372; assay: radioligand competition with [3H]naloxone (5 nM), membranes of CHO-K1 cells with recombinant human µ opioid receptor; Ki by Cheng-Prusoff; sample pre-incubated 20 h at 37 C, pH 7.5 (partly released biphalin)
[3] = biological target: GPR54 G-Protein coupled receptor (cloned human GPR54) (human) (UniProt Q969F8); assay: cell-based or functional assay
[4] = biological target: human µ opioid receptor (human), P35372; assay: radioligand competition with [3H]naloxone (5 nM), membranes of CHO-K1 cells with recombinant human µ opioid receptor; Ki by Cheng-Prusoff
[5] = biological target: human µ opioid receptor (human), P35372; assay: as above; remark: listed apart in the source
[6] = biological target: human µ opioid receptor (human), P35372; assay: radioligand competition with [3H]naloxone (5 nM), membranes of CHO-K1 cells with recombinant human µ opioid receptor; Ki by Cheng-Prusoff; sample pre-incubated 72 h at 37 C, pH 7.5
[7] = biological target: human µ opioid receptor (human), P35372; assay: radioligand competition with [3H]naloxone (5 nM), membranes of CHO-K1 cells with recombinant human µ opioid receptor; Ki by Cheng-Prusoff; sample pre-incubated 72 h at 37 C, pH 7.5 (partly released biphalin)

Sequence of human µ opioid receptor (human), P35372 (P35372 whole entry): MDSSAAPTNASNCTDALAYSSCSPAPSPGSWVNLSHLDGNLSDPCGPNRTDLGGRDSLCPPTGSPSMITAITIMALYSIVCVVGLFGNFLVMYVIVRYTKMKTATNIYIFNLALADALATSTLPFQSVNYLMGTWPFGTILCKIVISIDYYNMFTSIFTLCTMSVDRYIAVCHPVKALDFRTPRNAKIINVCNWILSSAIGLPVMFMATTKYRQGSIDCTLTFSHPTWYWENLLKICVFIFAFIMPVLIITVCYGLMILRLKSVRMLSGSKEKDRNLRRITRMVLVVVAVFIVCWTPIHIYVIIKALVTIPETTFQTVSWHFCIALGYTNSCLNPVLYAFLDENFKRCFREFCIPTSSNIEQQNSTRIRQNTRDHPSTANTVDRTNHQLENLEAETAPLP

Binder | Ki [1] [nM] | EC50 (nM) of agonist activation at GPR54 (FLIPR calcium flux) [3] [nM] | Fold change compared to metastin [3] [fold] | other results
YAGF (modifications not checked) [Di-C2-PEG2-FMOC-NHS-20K-biphalin] | 21.7 |  |  | Ki [2]: 10.1 nM
YAGF (modifications not checked) [Biphalin] |  |  |  | Ki [4]: 3.4 nM; Ki [5]: 4.7 nM; Ki [6]: 3.1 nM
YAGF (modifications not checked) [Di-CAC-PEG2-FMOC-NHS-20K-biphalin] | 1120 |  |  | Ki [7]: 13.7 nM

Now from value to binder, other results behind:

Ki [1] [nM] | EC50 (nM) of agonist activation at GPR54 (FLIPR calcium flux) [3] [nM] | Fold change compared to metastin [3] [fold] | Binder | other results
 | 11 | 1 | LPNYNWNSFGLRF (C-terminal amide (-NH2)) [Kisspeptin-13] | 
 | 190 | 16 | Kisspeptin-54 (C-terminal amide (-NH2)) peptide: GTSLSPPPESSGSPQQPGLSAPHSRQIPAPQGAVLVQREKDLPNYNWNSFGLRF | 

Reference: patent US20190070251A1
